Reference: patent US20250186597A1, “TARGETED IMMUNE ACTIVATION WITH IL-18 IMMUNOCYTOKINES” (BRIGHT PEAK THERAPEUTICS AG, priority 2023, published 2025)

Columns and labels:
Experiment in all cases: cell-based or functional assay
[1] = biological target: IL-18 polypeptide C151 (V11I, D35A, C38A, K53A, C76A, C127A) (human) (UniProt Q14116)
[2] = biological target: IL-18 polypeptide C145 (V11I, C38A, K53A, S55A, C76A, C127A) (human) (UniProt Q14116)
[3] = biological target: IL-18 polypeptide C167 (V11I, C38A, C76A, S105I, C127A) (human) (UniProt Q14116)
Sequence of IL-18 polypeptide C167 (V11I, C38A, C76A, S105I, C127A) (human) (Q14116 37-193 V47I/C74A/C112A/S141I/C163A): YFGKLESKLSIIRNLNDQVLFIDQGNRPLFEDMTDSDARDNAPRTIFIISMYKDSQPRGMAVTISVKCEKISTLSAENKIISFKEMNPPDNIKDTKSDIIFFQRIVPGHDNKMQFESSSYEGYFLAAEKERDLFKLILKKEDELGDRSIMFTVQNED

[4] = biological target: IL-18 polypeptide of SEQ ID NO: 53 (K53A, T63A) (human) (UniProt Q14116)
Sequence of IL-18 polypeptide of SEQ ID NO: 53 (K53A, T63A) (human) (Q14116 37-193 K89A/T99A): as the sequence (Q14116 37-193 V47I/C74A/C112A/S141I/C163A) above, with I11V, A38C, K53A, T63A, A76C, I105S, A127C counted along it

[5] = biological target: IL-18 polypeptide of SEQ ID NO: 39 (E06K, K53A) (human) (UniProt Q14116)
Sequence of IL-18 polypeptide of SEQ ID NO: 39 (E06K, K53A) (human) (Q14116 37-193 E42K/K89A): as the sequence (Q14116 37-193 V47I/C74A/C112A/S141I/C163A) above, with E6K, I11V, A38C, K53A, A76C, I105S, A127C counted along it

[6] = biological target: IL-18 polypeptide of SEQ ID NO: 9 (E6K, C38A, K53A, C68A, D98C) (human) (UniProt Q14116)
Sequence of IL-18 polypeptide of SEQ ID NO: 9 (E6K, C38A, K53A, C68A, D98C) (human) (Q14116 other isoform, or with tags, fused parts or gaps C38A K53A C68A D98C C38A K53A C68A D98C): as the sequence (Q14116 37-193 V47I/C74A/C112A/S141I/C163A) above, with E6K, I11V, K53A, C68A, A76C, D98C, I105S, A127C counted along it

[7] = biological target: IL-18 polypeptide C153 (V11I, D37A, C38A, K53A, C76A, C127A) (human) (UniProt Q14116)
Sequence of IL-18 polypeptide C153 (V11I, D37A, C38A, K53A, C76A, C127A) (human) (Q14116 37-193 V47I/D73A/C74A/K89A/C112A/C163A): as the sequence (Q14116 37-193 V47I/C74A/C112A/S141I/C163A) above, with D37A, K53A, I105S counted along it

[8] = biological target: IL-18 polypeptide of SEQ ID NO: 4 (E6K, C38A, K53A, C68A, M86C) (human) (UniProt Q14116)
Sequence of IL-18 polypeptide of SEQ ID NO: 4 (E6K, C38A, K53A, C68A, M86C) (human) (Q14116 other isoform, or with tags, fused parts or gaps C38A K53A C68A M86C C38A K53A C68A M86C): as the sequence (Q14116 37-193 V47I/C74A/C112A/S141I/C163A) above, with E6K, I11V, K53A, C68A, A76C, M86C, I105S, A127C counted along it

[9] = biological target: IL-18 polypeptide of SEQ ID NO: 38 (E06K) (human) (UniProt Q14116)
[10] = biological target: IL-18 polypeptide C143 (V11I, C38A, K53A, C76A, C127A) (human) (UniProt Q14116)
Sequence of IL-18 polypeptide C143 (V11I, C38A, K53A, C76A, C127A) (human) (Q14116 37-193 V47I/C74A/K89A/C112A/C163A): as the sequence (Q14116 37-193 V47I/C74A/C112A/S141I/C163A) above, with K53A, I105S counted along it

[11] = biological target: IL-18 polypeptide C146 (SEQ ID NO: 68; V11I, C38A, M51G, K53A, C76A, C127A) (human) (UniProt Q14116)
Sequence of IL-18 polypeptide C146 (SEQ ID NO: 68; V11I, C38A, M51G, K53A, C76A, C127A) (human) (Q14116 37-193 V47I/C74A/M87G/K89A/C112A/C163A): as the sequence (Q14116 37-193 V47I/C74A/C112A/S141I/C163A) above, with M51G, K53A, I105S counted along it

[12] = biological target: IL-18 polypeptide of SEQ ID NO: 57 (E6K, C38S, K53A) (human) (UniProt Q14116)
Sequence of IL-18 polypeptide of SEQ ID NO: 57 (E6K, C38S, K53A) (human) (Q14116 other isoform, or with tags, fused parts or gaps C38S K53A C38S K53A): as the sequence (Q14116 37-193 V47I/C74A/C112A/S141I/C163A) above, with E6K, I11V, A38S, K53A, A76C, I105S, A127C counted along it

[13] = biological target: IL-18 polypeptide C144 (V11I, C38A, K53A, T63A, C76A, C127A) (human) (UniProt Q14116)
Sequence of IL-18 polypeptide C144 (V11I, C38A, K53A, T63A, C76A, C127A) (human) (Q14116 37-193 V47I/C74A/K89A/T99A/C112A/C163A): as the sequence (Q14116 37-193 V47I/C74A/C112A/S141I/C163A) above, with K53A, T63A, I105S counted along it

[14] = biological target: IL-18 polypeptide of SEQ ID NO: 36 (K53A) (human) (UniProt Q14116)
Sequence of IL-18 polypeptide of SEQ ID NO: 36 (K53A) (human) (Q14116 37-193 K89A): as the sequence (Q14116 37-193 V47I/C74A/C112A/S141I/C163A) above, with I11V, A38C, K53A, A76C, I105S, A127C counted along it

[15] = biological target: IL-18 polypeptide C156 (V11I, C38A, N41A, K53A, C76A, C127A) (human) (UniProt Q14116)
Sequence of IL-18 polypeptide C156 (V11I, C38A, N41A, K53A, C76A, C127A) (human) (Q14116 37-193 V47I/C74A/N77A/K89A/C112A/C163A): as the sequence (Q14116 37-193 V47I/C74A/C112A/S141I/C163A) above, with N41A, K53A, I105S counted along it

[16] = biological target: IL-18 polypeptide of SEQ ID NO: 47 (C38S, C68S, C76S, C127S) (human) (UniProt Q14116)
Sequence of IL-18 polypeptide of SEQ ID NO: 47 (C38S, C68S, C76S, C127S) (human) (Q14116 37-193 C74S/C104S/C112S/C163S): as the sequence (Q14116 37-193 V47I/C74A/C112A/S141I/C163A) above, with I11V, A38S, C68S, A76S, I105S, A127S counted along it

[17] = biological target: IL-18 polypeptide of SEQ ID NO: 51 (T63A) (human) (UniProt Q14116)
Sequence of IL-18 polypeptide of SEQ ID NO: 51 (T63A) (human) (Q14116 37-193 T99A): as the sequence (Q14116 37-193 V47I/C74A/C112A/S141I/C163A) above, with I11V, A38C, T63A, A76C, I105S, A127C counted along it

[18] = biological target: IL-18 polypeptide of SEQ ID NO: 62 (E6K, C38A, K53A, C127A) (human) (UniProt Q14116)
Sequence of IL-18 polypeptide of SEQ ID NO: 62 (E6K, C38A, K53A, C127A) (human) (Q14116 other isoform, or with tags, fused parts or gaps C38A K53A C127A C38A K53A C127A): as the sequence (Q14116 37-193 V47I/C74A/C112A/S141I/C163A) above, with E6K, I11V, K53A, A76C, I105S counted along it

[19] = biological target: IL-18 polypeptide of SEQ ID NO: 60 (E6K, C38Q, K53A) (human) (UniProt Q14116)
Sequence of IL-18 polypeptide of SEQ ID NO: 60 (E6K, C38Q, K53A) (human) (Q14116 other isoform, or with tags, fused parts or gaps C38Q K53A C38Q K53A): as the sequence (Q14116 37-193 V47I/C74A/C112A/S141I/C163A) above, with E6K, I11V, A38Q, K53A, A76C, I105S, A127C counted along it

[20] = biological target: IL-18 polypeptide of SEQ ID NO: 55 (K53A, T63A, C38S, C68S, C76S, C127S, K70C) (human) (UniProt Q14116)
Sequence of IL-18 polypeptide of SEQ ID NO: 55 (K53A, T63A, C38S, C68S, C76S, C127S, K70C) (human) (Q14116 37-193 C74S/K89A/T99A/C104S/K106C/C112S/C163S): as the sequence (Q14116 37-193 V47I/C74A/C112A/S141I/C163A) above, with I11V, A38S, K53A, T63A, C68S, K70C, A76S, I105S, A127S counted along it

[21] = biological target: IL-18 polypeptide of SEQ ID NO: 31 (C38A, C76A, C127A) (human) (UniProt Q14116)
Sequence of IL-18 polypeptide of SEQ ID NO: 31 (C38A, C76A, C127A) (human) (Q14116 37-193 C74A/C112A/C163A): as the sequence (Q14116 37-193 V47I/C74A/C112A/S141I/C163A) above, with I11V, I105S counted along it

[22] = biological target: IL-18 polypeptide C157 (V11I, C38A, K53A, C76A, C127A, D132A) (human) (UniProt Q14116)
Sequence of IL-18 polypeptide C157 (V11I, C38A, K53A, C76A, C127A, D132A) (human) (Q14116 37-193 V47I/C74A/K89A/C112A/C163A/D168A): as the sequence (Q14116 37-193 V47I/C74A/C112A/S141I/C163A) above, with K53A, I105S, D132A counted along it

[23] = biological target: IL-18 polypeptide C168 (V11I, C38A, C76A, S105K, C127A) (human) (UniProt Q14116)
Sequence of IL-18 polypeptide C168 (V11I, C38A, C76A, S105K, C127A) (human) (Q14116 37-193 V47I/C74A/C112A/S141K/C163A): as the sequence (Q14116 37-193 V47I/C74A/C112A/S141I/C163A) above, with I105K counted along it

[24] = biological target: IL-18 polypeptide of SEQ ID NO: 6 (E6K, V11I, C38A, K53A, T63A, C68A, C76A, D98C, C127A) (human) (UniProt Q14116)
Sequence of IL-18 polypeptide of SEQ ID NO: 6 (E6K, V11I, C38A, K53A, T63A, C68A, C76A, D98C, C127A) (human) (Q14116 other isoform, or with tags, fused parts or gaps with the stated changes): as the sequence (Q14116 37-193 V47I/C74A/C112A/S141I/C163A) above, with E6K, K53A, T63A, C68A, D98C, I105S counted along it

[25] = biological target: IL-18 polypeptide C165 (V11I, C38A, S55R, C76A, C127A) (human) (UniProt Q14116)
[26] = biological target: IL-18 polypeptide C161 (K8R, V11I, C38A, C76A, Q103E, C127A) (human) (UniProt Q14116)
Sequence of IL-18 polypeptide C161 (K8R, V11I, C38A, C76A, Q103E, C127A) (human) (Q14116 other isoform, or with tags, fused parts or gaps V11I C38A C76A Q103E C127A V11I C38A C76A Q103E C127A): as the sequence (Q14116 37-193 V47I/C74A/C112A/S141I/C163A) above, with K8R, Q103E, I105S counted along it

[27] = biological target: IL-18 polypeptide C155 (V11I, C38A, D40A, K53A, C76A, C127A) (human) (UniProt Q14116)
Sequence of IL-18 polypeptide C155 (V11I, C38A, D40A, K53A, C76A, C127A) (human) (Q14116 37-193 V47I/C74A/D76A/K89A/C112A/C163A): as the sequence (Q14116 37-193 V47I/C74A/C112A/S141I/C163A) above, with D40A, K53A, I105S counted along it

[28] = biological target: IL-18 polypeptide of SEQ ID NO: 40 (E06K, S55A) (human) (UniProt Q14116)
Sequence of IL-18 polypeptide of SEQ ID NO: 40 (E06K, S55A) (human) (Q14116 37-193 E42K/S91A): as the sequence (Q14116 37-193 V47I/C74A/C112A/S141I/C163A) above, with E6K, I11V, A38C, S55A, A76C, I105S, A127C counted along it

[29] = biological target: IL-18 polypeptide of SEQ ID NO: 42 (E06K, K53A, S55A, T63A) (human) (UniProt Q14116)
Sequence of IL-18 polypeptide of SEQ ID NO: 42 (E06K, K53A, S55A, T63A) (human) (Q14116 37-193 E42K/K89A/S91A/T99A): as the sequence (Q14116 37-193 V47I/C74A/C112A/S141I/C163A) above, with E6K, I11V, A38C, K53A, S55A, T63A, A76C, I105S, A127C counted along it

[30] = biological target: IL-18 polypeptide of SEQ ID NO: 50 (E06K, K53A, T63A) (human) (UniProt Q14116)
[31] = biological target: IL-18 polypeptide of SEQ ID NO: 46 (E06K, K53A, S55A, M51G) (human) (UniProt Q14116)
Sequence of IL-18 polypeptide of SEQ ID NO: 46 (E06K, K53A, S55A, M51G) (human) (Q14116 37-193 E42K/M87G/K89A/S91A): as the sequence (Q14116 37-193 V47I/C74A/C112A/S141I/C163A) above, with E6K, I11V, A38C, M51G, K53A, S55A, A76C, I105S, A127C counted along it

[32] = biological target: IL-18 polypeptide C163 (V11I, C38A, C76A, Q103K, C127A) (human) (UniProt Q14116)
[33] = biological target: IL-18 polypeptide C160 (V11I, C38A, K53A, C76A, D110A, C127A) (human) (UniProt Q14116)
Sequence of IL-18 polypeptide C160 (V11I, C38A, K53A, C76A, D110A, C127A) (human) (Q14116 37-193 V47I/C74A/K89A/C112A/D146A/C163A): as the sequence (Q14116 37-193 V47I/C74A/C112A/S141I/C163A) above, with K53A, I105S, D110A counted along it

Sequence of IL-18 polypeptide C151 (V11I, D35A, C38A, K53A, C76A, C127A) (human) (Q14116 37-193 V47I/D71A/C74A/K89A/C112A/C163A): as the sequence (Q14116 37-193 V47I/C74A/C112A/S141I/C163A) above, with D35A, K53A, I105S counted along it

IC50 of inhibition by IL-18BP of IFNγ stimulation in NK92 cells [1]: 3.62 nM | IC50 of inhibition by IL-18BP of IFNγ stimulation in NK92 cells [2]: 10.2 nM | IC50 of inhibition by IL-18BP of IFNγ stimulation in NK92 cells [3]: 0.809 nM | IC50 of inhibition by IL-18BP of IFNγ stimulation in NK92 cells [4]: 18.2 nM | IC50 of inhibition by IL-18BP of IFNγ stimulation in NK92 cells [5]: > 703 nM | IC50 of inhibition by IL-18BP of IFNγ stimulation in NK92 cells [6]: 961 nM | IC50 of inhibition by IL-18BP of IFNγ stimulation in NK92 cells [7]: 2.22 nM | IC50 of inhibition by IL-18BP of IFNγ stimulation in NK92 cells [8]: 396 nM | IC50 of inhibition by IL-18BP of IFNγ stimulation in NK92 cells [9]: 7.79 nM | IC50 of inhibition by IL-18BP of IFNγ stimulation in NK92 cells [10]: 1.62 nM | IC50 of inhibition by IL-18BP of IFNγ stimulation in NK92 cells [11]: 733 nM | IC50 of inhibition by IL-18BP of IFNγ stimulation in NK92 cells [12]: 146 nM | IC50 of inhibition by IL-18BP of IFNγ stimulation in NK92 cells [13]: 7.52 nM | IC50 of inhibition by IL-18BP of IFNγ stimulation in NK92 cells [14]: 27.3 nM | IC50 of inhibition by IL-18BP of IFNγ stimulation in NK92 cells [15]: 0.681 nM | IC50 of inhibition by IL-18BP of IFNγ stimulation in NK92 cells [16]: 0.444 nM | IC50 of inhibition by IL-18BP of IFNγ stimulation in NK92 cells [17]: 0.239 nM | IC50 of inhibition by IL-18BP of IFNγ stimulation in NK92 cells [18]: 284 nM | IC50 of inhibition by IL-18BP of IFNγ stimulation in NK92 cells [19]: 780 nM | IC50 of inhibition by IL-18BP of IFNγ stimulation in NK92 cells [20]: > 1000 nM | IC50 of IL-18BP-mediated inhibition of IFNγ secretion by NK92 cells [21]: 0.282 nM | IC50 of inhibition by IL-18BP of IFNγ stimulation in NK92 cells [22]: 6.08 nM | IC50 of inhibition by IL-18BP of IFNγ stimulation in NK92 cells [23]: 0.176 nM | IC50 of inhibition by IL-18BP of IFNγ stimulation in NK92 cells [24]: 5.85 nM | IC50 of inhibition by IL-18BP of IFNγ stimulation in NK92 cells [25]: 0.885 nM | IC50 of inhibition by IL-18BP of IFNγ stimulation in NK92 cells [26]: 1.07 nM | IC50 of inhibition by IL-18BP of IFNγ stimulation in NK92 cells [27]: 3.23 nM | IC50 of inhibition by IL-18BP of IFNγ stimulation in NK92 cells [28]: 15 nM | IC50 of inhibition by IL-18BP of IFNγ stimulation in NK92 cells [29]: 1060 nM | IC50 of inhibition by IL-18BP of IFNγ stimulation in NK92 cells [30]: > 1000 nM | IC50 of inhibition by IL-18BP of IFNγ stimulation in NK92 cells [31]: 0.189 nM | IC50 of inhibition by IL-18BP of IFNγ stimulation in NK92 cells [32]: 0.823 nM | IC50 of inhibition by IL-18BP of IFNγ stimulation in NK92 cells [33]: 3.18 nM
Substance: Fc fused human IL-18 binding protein isoform a (IL-18BPa; R&D systems, Cat #119-BP) (from UniProt O95998 31-194) (Fc fusion)
